Test results: patent US20070060521

Columns and labels:
[1] = test system: purified baculovirus-expressed STAT3 (full-length)
[2] = test system: purified baculovirus-expressed STAT3β

Substance | in vitro phosphorylation of STAT3 (32P-ATP, SDS-PAGE, autoradiography) [1] | in vitro phosphorylation of STAT3b (32P-ATP, SDS-PAGE, autoradiography) [2]
purified JNK protein kinase (BIOMOL) | p38 and JNK can effectively phosphorylate STAT3 in vitro | STAT3b does not undergo serine phosphorylation by any of the MAPKs
purified ERKs protein kinases (BIOMOL) | STAT3 phosphorylation by ERK, however, is minimal compared to levels achieved for JNK and p38 | STAT3b does not undergo serine phosphorylation by any of the MAPKs
purified p38 protein kinase (AG Scientific) | p38 and JNK can effectively phosphorylate STAT3 in vitro | STAT3b does not undergo serine phosphorylation by any of the MAPKs
